According to US12397036B2, “Peptide exchange protein” (Cambridge Enterprise Limited, priority 2018, dated 2025):

Key:
[1] = molecular target: T1, HLA-A*02:01 (Homo sapiens, UniProt P04439, D140Y/D185E/D98H/E176V/E277Q/G131W/G231S/I119V/I121R/I166T/I218V/L300P/L318F/N151K/N90K/P208A/P217A/Q86G/Q94H/R138H/R169H/T345S); assay type: cell-based; details: ETV* (HLA-A*68:02) and SRY* (HLA-B*27) controls
T1 construct: expressed in transfected cells; host or cells: HeLaM-HLA-ABC-KO
Method: (g) Dose response curves of IFN-γ treated HeLaM and HeLaM-HLA-ABC^KO cells treated −/+100 nM TAPBPR with increasing concentrations of ETVSK*QSNV for 15 min at 37° C. Line graphs show MFI−/+s.e.m from three independent experiments. […] (h) Histograms of the typical fluorescent peptide binding observed using flow cytometry. (i) Bar graphs showing the MFI of fluorescent peptide binding to HeLaM HLA-ABC^KO+A2−/+s.e.m from two independent experiments with duplicates. ***P≤0.001, ****P≤0.0001, n/s not significant, using unpaired two-tailed t-test.
(§1) Target cell lines were seeded at 25,000-30,000 cells/well in 12-well plates and stimulated with IFN-γ. Following the stimulation period, the cells were washed 3 times with 1×PBS and incubated with 300 μL pre-warmed opti-MEM (Thermo Fisher Scientific, UK). In case the peptide binding was done in the presence of recombinant TAPBPR, the cells were then treated with or without recombinant TAPBPR (100 nM for HLA-A*68:02 or 1 μM for HLA-A*02:01). After 15 min, the desired TAMRA-labelled peptide was added to the cells and incubated at 37° C. (15 min for HLA-A*68:02 or 60 min for HLA-A*02:01). In case the peptide binding was facilitated by over-expressed TAPBPR, the labelled peptide was directly added to the cells, without using recombinant TAPBPR. […] The level of bound peptide/cell was determined by flow cytometry, using the YelFL1 channel (Cytek).

[2] = molecular target: T2, surface MHC I molecules (Homo sapiens, UniProt P04439, A269V/D140Y/D185E/E176V/E277Q/E87N/F33Y/G231S/I121R/I166T/I218V/L180W/L300P/L318F/N151K/P208A/P217A/Q86R/R138H/R169H/S129P/T345S/V36M); test: TAPBPR remaining on cell surface after peptide binding (PeTe4 staining); assay type: cell-based; details: 100 nM soluble TAPBPR^WT, then 10 nM peptide 15 min
T2 construct: HLA-A68 (MHC class I) expressed on HeLa; endogenous in cells; host or cells: HeLaM and derivatives (TAPBPR-KO with or without TAPBPR/tapasin constructs, +Her2, Her2-KO, +PDL1, pD-GFP); in some arms HeLaM-HLA-ABC-KO re-expressing HLA-A*68:02
Description: Subsequently, the amount of TAPBPR remaining on the cell surface was detected by staining with the TAPBPR specific mAb PeTe4.

[3] = molecular target: T3, HLA-A*02:01 naturally expressed on MCF-7 (Homo sapiens, UniProt P04439, D140Y/D185E/D98H/E176V/E277Q/G131W/G231S/I119V/I121R/I166T/I218V/L300P/L318F/N151K/N90K/P208A/P217A/Q86G/Q94H/R138H/R169H/T345S); test: Fluorescent peptide loading onto MCF-7 cells by soluble TAPBPR; assay type: cell-based
T3 construct: onto HLA-A*02:01 naturally expressed on MCF-7, a breast cancer cell line; endogenous in cells
Method: (YLL) followed by staining with the TCR-like mAb L1 specific for […]/HLA-A2 complexes. (6d) The MFI of L1 binding to MCF-7 cells −/+SD from three independent experiments. (6e) Bar graphs show T cell activity measured by IFN-γ secretion in fluorospot assays of a HLA-A2 restricted […] specific CD8+ T cell line when incubated with MCF-7 target cells as treated in FIG. 6b with the exception that non-fluorescent […] peptide at 100 pM was used. […] Error bars−/+SD. Note: In FIGS. 6a, 6b, & 6e IFNγ treated cells were used.
as §1

[4] = molecular target: T4, HLA-A68 (MHC class I) expressed on HeLa (Homo sapiens, UniProt P04439, A269V/D140Y/D185E/E176V/E277Q/E87N/F33Y/G231S/I121R/I166T/I218V/L180W/L300P/L318F/N151K/P208A/P217A/Q86R/R138H/R169H/S129P/T345S/V36M); test: ETV* peptide loading on HeLaM and HeLaM-pD-GFP cells; assay type: cell-based; details: 1 nM recombinant protein
T4 construct: HLA-A68 (MHC class I) expressed on HeLa; endogenous in cells; host or cells: HeLaM and derivatives (TAPBPR-KO with or without TAPBPR/tapasin constructs, +Her2, Her2-KO, +PDL1, pD-GFP); in some arms HeLaM-HLA-ABC-KO re-expressing HLA-A*68:02

[5] = molecular target: T5, Her2 (Homo sapiens, UniProt P04626); test: Binding of recombinant TAPBPR proteins to HeLaM, HeLaM+Her2 and HeLaM^Her2KO cells; details: 100 nM recombinant protein
T5 construct: HeLaM cells which naturally express Her2; endogenous in cells; host or cells: HeLaM, HeLaM+Her2 (over-expressing), HeLaM-Her2-KO (negative control)
Method: Histograms show the level of TAPBPR when the two cell lines were incubated with 100 nM protein while bar graphs summarise results using a range of concentrations of protein (0.001-100 nM). […] Each bar represents mean and standard deviation of three independent experiments.
Each bar represents mean and standard deviation of three independent experiments.

[6] = system: EL4 cells; test: Binding of soluble human TAPBPR to EL4 cells (PeTe-4); set-up: species or system murine; details: 1 μM, 15 min, 37° C.
[7] = system: EL4 tumour cells; test: OT1 T cell killing of EL4 tumour cells; assay type: cell-based, murine; details: 1 μM TAPBPR, 1 nM SIINFEKL
Method: Histograms are representative of three independent experiments. (19d) Bar graphs show the MFI of 25-D1.16−/+SD from three independent experiments. (19e) OT1 killing of EL4 cells treated −/+1 μM soluble TAPBPR^WT or TAPBPR^TN5, followed by incubation with 1 nM […] peptide. Error bars−/+s.e.m from triplicate wells. Data is representative of three independent experiments. Note: surface expressed H-2K^b are relatively more peptide receptive compared to human MHC I molecules. […] As OT1 T cells are highly efficient cytotoxic cells, killing 80-100% of targets after 1-4 hours, we decreased the concentration of […] used in these experiments to 1 nM in order to differentiate between TAPBPR-mediated and background peptide binding, otherwise we would not observe an additive effect of soluble TAPBPR on target cell killing.
Although the results above provide indication that soluble TAPBPR could be utilised to decorate target cells with immunogenic peptides and enhance T cell responses against tumours, we next determined whether this could result in enhanced killing of tumour cells. We assessed killing of murine EL4 tumour cells by OT1 T cells in the presence of human TAPBPR and very low concentrations of […] peptide.

[8] = molecular target: surface GFP on HeLaM cells (Aequorea victoria, UniProt P42212, F64L/H231L/S65T)
Method: (B) Histograms and (C) Bar graphs compare the binding of recombinant soluble TAPBPR (TAPBPR) with recombinant TAPBPR-fused to a nanobody specific for GFP (TAPBPR-GFPNB) to HeLaM cells (left) and HeLaM-pD-GFP cells (right). Histograms show the level of TAPBPR when the two cell lines were incubated with 100 nM protein while bar graphs summarise results using a range of concentrations of protein (0.001-100 nM). […] Each bar represents mean and standard deviation of three independent experiments.

B1: soluble TAPBPR^WT: secreted His-tagged luminal domain of human TAPBPR, lacking transmembrane domain and cytoplasmic tail; SEQ ID NO: 2 (protein)
chain: KPHPAEGQWRAVDVVLDCFLVKDGAHRGALASSEDRARASLVLKQVPVLDDGSLEDFTDFQGGTLAQDDPPIIFEASVDLVQIPQAEALLHADCSGKEVTCEISRYFLQMTETTVKTAAWFMANVQVSGGGPSISLVMKTPRVAKNEVLWHPTLNLPLSPQGTVRTAVEFQVMTQTQSLSFLLGSSASLDCGFSMAPGLDLISVEWRLQHKGRGQLVYSWTAGQGQAVRKGATLEPAQLGMARDASLTLPGLTIQDEGTYICQITTSLYRAQQIIQLNIQASPKVRLSLANEALLPTLICDIAGYYPLDVVVTWTREELGGSPAQVSGASFSSLRQSVAGTYSISSSLTAEPGSAGATYTCQVTHISLEEPLGASTQVVPPERR
modifications: His tag; TAPBPR luminal domain (mature sequence without 21 aa leader sequence)
binding of peptides specific for other MHC class I molecules onto HLA-A2 [1]: did not promote the binding
dissociation of TAPBPR from cells after peptide binding [2]: dissociate from cells upon high affinity peptide binding
loading of fluorescent derivatives of tumour antigens IMDQVPFSV, […], LLGRNSFEV and RLLQETELV ([3]; 1 μM TAPBPR 15 min, 10 nM peptide 60 min): significantly enhanced the loading
association of YLLEK*LWRL and NLVPK*VATV onto HLA-A2 ([3]; versus peptide alone or TAPBPR^TN5): enhanced the association
exogenous peptide loading onto antibody-target expressing cells at 1 nM protein [4]: no peptide loading
binding to Her2-deficient HeLaM cells [5]: still capable of binding
binding to EL4 cells [6]: bound to EL4 cells
OT1 cytotoxic T cell killing of peptide-pulsed EL4 target cells [7]: significant enhancement in killing
binding to either of the HeLaM cell lines ([8]; 10 nM recombinant protein): did not exhibit any binding
binding to HeLaM cells (lacking GFP) ([8]; 100 nM recombinant protein): bound at low levels
